Data from patent US20140377806A1.

Key:
[1] = target: Full-length human CXCR3 receptor protein with C-terminal 6xHis and HPC4 tag (human) (UniProt P49682); experiment: SPR (Biacore whole receptor assay), receptor on NTA chip, 1:1 fit
[2] = target: human CXCR3 (full length, splice variant A) expressed on transfected cells (human) (UniProt P49682)
[3] = target: human CXCR3 (full length, splice variant A) expressed on transfected cells (human) (UniProt P49682); experiment: cell-based or functional assay
[4] = target: human CXCR3 (full length, splice variant A) expressed on transfected cells (human) (UniProt P49682); remark: listed apart in the source

Substance: human CXCL11 (from UniProt O14625 22-94) (ligand)
- Kd [1]: 1.72 nM
- koff [1]: 0.00441 s⁻¹
- kon [1]: 2.58e+06 M⁻¹ s⁻¹

Substance: CTRL IgG1 (antibody)
- IC50, inhibition of CXCL11-induced calcium mobilization in hCXCR3 HEK cells (FLIPR); isotype control [2]: 27.6 µg/mL

Substance: human CXCL10 (from UniProt P02778 22-98) (ligand)
- Kd [1]: 9.76 nM
- koff [1]: 0.00127 s⁻¹
- kon [1]: 136000 M⁻¹ s⁻¹

Substance: mouse CXCL11 (from UniProt Q9JHH5 22-100) (ligand)
- Kd [1]: 1.17 nM
- koff [1]: 0.00426 s⁻¹
- kon [1]: 3.69e+06 M⁻¹ s⁻¹

Substance: Anti-hCXCR3 mAb clone 1C6 (Becton, Dickinson catalog #557183) (antibody)
- IC50, inhibition of CXCL11-induced calcium mobilization in hCXCR3 HEK cells (FLIPR); bar labelled '+ CTRL' (panels A to C of the same sheet print '1C6 (+ CTRL)') [2]: 0.12 µg/mL
- Kd [1]: 3.51 nM
- koff [1]: 0.000142 s⁻¹
- kon [1]: 41100 M⁻¹ s⁻¹
- IC50 (M), calcium mobilization to CXCL10 in human CXCR3-Gqi4qi4 CHO cells [3]: 3.14e-06 M
- IC50 (read off the curve), inhibition of CXCL10-induced calcium mobilization [all five panels] [4]: 3 µg/mL
